B1: anti-c-Met therapeutic antibody C8-H241 (human IgG4 subtype) (antibody, V domains shown)
VH: QVQLVQSGAEVKKPGASVKVSCKASGYTFTDYYMHWVRQAPGQGLEWMGRVNPNRRGTTYNQKFEGRVTMTTDTSTSTAYMELRSLRSDDTAVYYCARANWLDYWGQGTTVTVSS
VL: DIQMTQSPSSLSASVGDRVTITCSVSSSVSSIYLHWYQQKPGKAPKLLIYSTSNLASGVPSRFSGSGSGTDFTLTISSLQPEDFATYYCQVYSGYPLTFGGGTKVEIKR
notes: also called mAb C8-H241
B2: anti-c-Met monoclonal antibody OptD11 (mouse IgG1 subtype) (antibody, V domains shown)
VH: EVQLQQSGPELVKPGASVRISCKASGYTFTSRYIHWMKQRPGQGLEWIGWIYPVTGDTYYNEKFKGKATLTSDKSSSTAYMQISSLTSDDSAVYFCARGGGMFYYWGQGTLVTVSA
VL: ETTVTQSPALMAASPGEKVTITCSVSSSISSTNLHWYQQKSETSPKPWIYGTSNLASGVPVRFGGSGSGTSYSLTISSMEAEDAATYYCQQWSSYPYTFGGGTKLEIKR
notes: Murine IgG1; also called mAb OptD11; OptD11 c-Met antibody

How the values were obtained:
[1] = molecular target: T1, human c-Met ECD expressed as Fc fusion protein with a flag- and His-tag (Flis-tag) at the C-terminus of the Fc (human); assay: SPR (BIAcore): antibody injected over c-Met-ECD-Fc-Flis captured at 130 Ru
T1 construct: also called human c-Met-ECD-Fc-Flis; c-Met-ECD-Fc-Flis
T1 sequence (chain, as listed by the source): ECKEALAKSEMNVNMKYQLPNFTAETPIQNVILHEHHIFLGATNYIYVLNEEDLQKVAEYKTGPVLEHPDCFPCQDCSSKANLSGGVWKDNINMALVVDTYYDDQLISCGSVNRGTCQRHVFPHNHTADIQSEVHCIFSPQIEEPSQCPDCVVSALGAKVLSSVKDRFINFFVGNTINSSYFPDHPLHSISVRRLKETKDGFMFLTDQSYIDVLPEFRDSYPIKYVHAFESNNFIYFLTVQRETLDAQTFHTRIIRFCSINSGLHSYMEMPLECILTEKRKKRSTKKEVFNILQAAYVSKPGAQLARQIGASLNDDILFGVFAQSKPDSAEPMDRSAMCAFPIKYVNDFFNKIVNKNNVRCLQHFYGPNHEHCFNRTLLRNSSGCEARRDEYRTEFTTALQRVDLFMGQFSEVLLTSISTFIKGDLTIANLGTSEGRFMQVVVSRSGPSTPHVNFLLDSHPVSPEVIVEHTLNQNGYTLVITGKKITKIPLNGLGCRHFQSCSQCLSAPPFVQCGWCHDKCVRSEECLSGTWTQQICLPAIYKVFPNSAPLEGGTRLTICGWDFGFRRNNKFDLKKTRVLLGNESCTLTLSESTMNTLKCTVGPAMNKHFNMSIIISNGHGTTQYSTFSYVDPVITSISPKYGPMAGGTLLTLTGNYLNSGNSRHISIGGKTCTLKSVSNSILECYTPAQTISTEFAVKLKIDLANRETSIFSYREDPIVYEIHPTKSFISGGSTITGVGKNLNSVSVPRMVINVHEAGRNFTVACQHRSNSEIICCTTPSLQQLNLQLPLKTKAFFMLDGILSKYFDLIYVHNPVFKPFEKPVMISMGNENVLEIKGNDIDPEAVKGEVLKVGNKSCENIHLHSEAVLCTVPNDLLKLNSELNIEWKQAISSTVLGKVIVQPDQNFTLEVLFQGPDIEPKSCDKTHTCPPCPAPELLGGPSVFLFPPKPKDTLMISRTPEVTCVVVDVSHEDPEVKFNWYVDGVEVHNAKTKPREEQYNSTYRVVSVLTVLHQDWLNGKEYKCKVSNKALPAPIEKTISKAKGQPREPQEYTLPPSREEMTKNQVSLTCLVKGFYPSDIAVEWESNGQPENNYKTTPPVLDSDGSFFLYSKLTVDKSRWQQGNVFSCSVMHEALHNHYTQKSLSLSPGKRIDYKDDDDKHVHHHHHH

[2] = molecular target: T1, human c-Met ECD expressed as Fc fusion …; assay: SPR (Biacore): antibody captured by goat anti-mouse Fc, c-Met ECD-Fc-Flis as analyte, 25 C, 1:1 Langmuir model
Procedure: (§1) Briefly described, the anti-c-Met monoclonal antibody of the invention may be dissolved in HBS-EP buffer (150 mM sodium chloride, 3 mM EDTA, 0.005% (w/v) surfactant P-20, and 10 mM N-2-hydroxyethylpiperazine-N′-2-ethanesulfonic acid (HEPES) at pH 7.4; #BR-1001-88). Goat anti-mouse Fc antibody is immobilized on flow cells 1 to 4 of a CM5 sensor chip at a level of 4000 response units (RUs) using amine coupling chemistry to capture anti-c-Met antibodies.
(§2) Binding may be evaluated using multiple analytical cycles. Each cycle is performed at a flow rate of 50 μl/minute, and may consist of the following steps: injection of about 10 μl of an anti-c-Met monoclonal antibody at 10 μg/ml aiming at a capture of 40-100 RUs, injection of 250 μl of human or cynomolgus monkey c-Met-Flis-Fc ECD (starting at 100 nM and using two-fold serial dilutions for each cycle) followed by 20 minutes for dissociation, and regeneration using about 30 μl of 10 mM glycine hydrochloride, pH 1.5. Association and dissociation rates for each cycle may be evaluated using a “1:1 (Langmuir) binding” model in the BIAevaluation software 4.1.

[3] = molecular target: T2, cynomolgus monkey c-Met ECD expressed as Fc fusion protein with a flag- and His-tag (Flis-tag) at the … (cynomolgus monkey); assay: as above
T2 construct: also called cynomolgus monkey c-Met-Flis-Fc ECD
T2 sequence (chain, as listed by the source limits assumed): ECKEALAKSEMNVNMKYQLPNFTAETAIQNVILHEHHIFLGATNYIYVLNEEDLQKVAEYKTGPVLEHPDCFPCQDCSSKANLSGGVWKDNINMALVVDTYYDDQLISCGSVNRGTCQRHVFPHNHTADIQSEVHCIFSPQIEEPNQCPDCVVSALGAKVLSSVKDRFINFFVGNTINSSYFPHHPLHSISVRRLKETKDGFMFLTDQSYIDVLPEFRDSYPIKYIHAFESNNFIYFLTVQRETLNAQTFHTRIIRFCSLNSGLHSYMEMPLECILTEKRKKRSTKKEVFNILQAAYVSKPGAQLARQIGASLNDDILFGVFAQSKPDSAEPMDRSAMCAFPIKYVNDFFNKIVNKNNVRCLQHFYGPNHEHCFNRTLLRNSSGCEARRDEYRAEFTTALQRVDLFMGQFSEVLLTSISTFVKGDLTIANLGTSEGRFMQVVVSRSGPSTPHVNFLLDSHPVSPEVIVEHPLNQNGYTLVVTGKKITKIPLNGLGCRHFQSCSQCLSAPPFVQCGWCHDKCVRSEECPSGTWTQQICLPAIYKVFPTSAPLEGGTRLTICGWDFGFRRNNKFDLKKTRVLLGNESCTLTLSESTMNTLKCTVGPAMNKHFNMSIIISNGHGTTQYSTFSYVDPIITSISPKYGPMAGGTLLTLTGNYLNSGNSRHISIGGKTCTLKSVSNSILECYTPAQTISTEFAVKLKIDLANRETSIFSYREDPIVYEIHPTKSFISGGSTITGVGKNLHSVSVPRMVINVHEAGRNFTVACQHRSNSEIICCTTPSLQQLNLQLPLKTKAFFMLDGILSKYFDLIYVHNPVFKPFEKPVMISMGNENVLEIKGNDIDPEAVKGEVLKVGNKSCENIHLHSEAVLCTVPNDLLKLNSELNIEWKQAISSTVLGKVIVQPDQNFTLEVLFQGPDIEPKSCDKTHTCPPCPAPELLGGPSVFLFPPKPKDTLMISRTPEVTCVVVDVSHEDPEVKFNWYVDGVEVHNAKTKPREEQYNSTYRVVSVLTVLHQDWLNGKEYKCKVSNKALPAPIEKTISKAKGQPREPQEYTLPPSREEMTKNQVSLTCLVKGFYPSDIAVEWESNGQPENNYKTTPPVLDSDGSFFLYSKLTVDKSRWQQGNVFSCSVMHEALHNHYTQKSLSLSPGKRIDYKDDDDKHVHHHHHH
Procedure: as §1, §2

[4] = molecular target: B1; assay: ELISA control: 2 µg/mL C8-H241 (human IgG4 subtype) coated, no cMet ECD, 0.5 µg/mL biotinylated OptD11 detection
[5] = molecular target: T1, human c-Met ECD expressed as Fc fusion …; assay: SPR (BIAcore): antibody injected over c-Met-ECD-Fc-Flis captured at 130 Ru; the sequential experiment also includes C8-H241

| Stoichiometry (mAb to cMet-Fc) [1] | Kd [2] [nM] | koff [2] [s⁻¹] | kon [2] [M⁻¹ s⁻¹] | Kd [3] [nM] | koff [3] [s⁻¹] | kon [3] [M⁻¹ s⁻¹] | binding result [4] | Stoichiometry (mAb to cMet-Fc) [5] | Binder |
| --- | --- | --- | --- | --- | --- | --- | --- | --- | --- |
| 0.91 | – | – | – | – | – | – | – | – | B1 |
| – | 0.12 | 9e-06 | 160000 | 0.35 | 4.7e-05 | 130000 | no binding (tested: 0.5 µg/mL) | 0.89 | B2 |
